US20150274820A1 (ESBATECH AN ALCON BIOMEDICAL RESEARCH UNIT, published 2015)

T1: recombinant human PLGF (human, UniProt P49763-2 19-149, limits assumed)
T1 construct: Negative control; also called PIGF
T1 sequence (looked up): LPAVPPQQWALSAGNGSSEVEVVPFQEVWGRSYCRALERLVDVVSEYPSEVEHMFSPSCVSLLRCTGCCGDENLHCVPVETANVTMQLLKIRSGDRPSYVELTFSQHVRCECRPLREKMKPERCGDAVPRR

T2: recombinant human VEGF121 (human, UniProt P15692 27-147)
T2 construct: mature; Isoform VEGF121 of the entry; also called hVEGF121
T2 sequence (looked up): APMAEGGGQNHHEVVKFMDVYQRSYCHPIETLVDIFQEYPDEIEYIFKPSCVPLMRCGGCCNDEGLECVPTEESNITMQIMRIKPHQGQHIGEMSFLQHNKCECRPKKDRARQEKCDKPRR

T3: recombinant human VEGF110 (human, UniProt P15692-4 27-136, limits assumed)
T3 construct: Made in house; also called hVEGF110
T3 sequence (looked up): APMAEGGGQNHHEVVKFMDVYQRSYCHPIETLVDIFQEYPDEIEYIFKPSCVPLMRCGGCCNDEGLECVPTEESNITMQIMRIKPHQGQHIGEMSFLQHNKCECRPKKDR


Legend:
[1] = target: recombinant murine VEGF164 (mouse) (UniProt Q00731); assay: Biacore SPR, VEGF immobilized, pH 5
[2] = target: recombinant rat VEGF164 (rat) (UniProt P16612); assay: Biacore SPR, VEGF immobilized, pH 5
[3] = target: T4, recombinant human VEGF165 (human, UniProt P15692 27-191); assay: Biacore SPR, VEGF immobilized, pH 5
T4 construct: mature; Isoform VEGF165 of the entry; also called hVEGF165; hVEGF
Protocol: (§1) In this example, the Biacore-binding ability of scFvs was tested and the binding affinity was measured using the exemplary surface plasmon resonance method with BIAcore™-T100. The VEGF proteins, tested for binding by these scFv candidates, in this example and later examples include purified Escherichia coli-expressed recombinant human VEGF₁₆₅ (PeproTech EC Ltd.), recombinant human VEGF₁₂₁ (PeproTech EC Ltd.), recombinant human VEGF₁₁₀ (ESBATech AG), recombinant murine VEGF₁₆₄ (PeproTech EC Ltd.), recombinant rat VEGF₁₆₄ (Biovision), recombinant rabbit VEGF₁₁₀ (ESBATech AG), and recombinant human PLGF (PeproTech EC Ltd.). For the surface plasmon resonance experiment, carboxymethylated dextran biosensor chips (CM4, GE Healthcare) were activated with N-ethyl-N′-(3-dimethylaminopropyl) carbodiimide hydrochloride and N-hydroxysuccinimide according to the supplier's instructions. Each of the 6 different VEGF forms, as exemplified above, was coupled to 1 of the 4 different flow cells on a CM4 sensor chip using a standard amine-coupling procedure. […] The 4th flow cell of each chip was treated similarly except no proteins were immobilized prior to blocking, and the flow cell was used as in-line reference. […] Dissociation of the anti-VEGF scFv from the VEGF on the CM4 chip was allowed to proceed for 10 min at 25° C. Sensorgrams were generated for each anti-VEGF scFv sample after in-line reference cell correction followed by buffer sample subtraction. The apparent dissociation rate constant (kd), the apparent association rate constant (kₐ) and the apparent dissociation equilibrium constant (KD) were calculated using one-to-one Langmuir binding model with BIAcore T100 evaluation Software version 1.1.

[4] = target: T1, recombinant human PLGF; assay: Biacore SPR, PlGF immobilized, pH 5
Protocol: as §1

[5] = target: T4, recombinant human VEGF165; assay: Biacore SPR, VEGF immobilized, pH 5; remark: listed apart in the source
Protocol: as §1

[6] = target: T2, recombinant human VEGF121; assay: Biacore SPR, VEGF immobilized, pH 5
Protocol: as §1

[7] = target: T3, recombinant human VEGF110; assay: Biacore SPR, VEGF immobilized, pH 5
Protocol: as §1

[8] = target: T4, recombinant human VEGF165; assay: Biacore SPR, VEGF immobilized, pH 7.4
Protocol: as §1

[9] = target: T4, recombinant human VEGF165; assay: VEGFR1/Fc competition ELISA on coated hVEGF165; ratio to Lucentis
Protocol: After 30-60 min of incubation at room temperature, the mixtures were transferred to the human VEGF₁₆₅ immobilized plate and incubated for 90 min. […] Optical density at 450 nm (OD 450 nm) was measured using a Sunrise microplate reader (Tecan). Data were analyzed as above, and EC₅₀ values were calculated from the dose-response curves of the scFvs.

[10] = target: T4, recombinant human VEGF165; assay: cell-based or functional assay
[11] = target: recombinant murine VEGF164 (mouse) (UniProt Q00731); assay: Biacore SPR; ratio to hVEGF165
[12] = target: recombinant rat VEGF164 (rat) (UniProt P16612); assay: Biacore SPR; ratio to hVEGF165
[13] = target: T4, recombinant human VEGF165; assay: Biacore SPR, VEGF immobilized, pH 5; remark: listed apart in the source
Protocol: as §1, with “1.1. […]” for “1.1.”

T4 sequence (P15692 other isoform, or with tags, fused parts or gaps): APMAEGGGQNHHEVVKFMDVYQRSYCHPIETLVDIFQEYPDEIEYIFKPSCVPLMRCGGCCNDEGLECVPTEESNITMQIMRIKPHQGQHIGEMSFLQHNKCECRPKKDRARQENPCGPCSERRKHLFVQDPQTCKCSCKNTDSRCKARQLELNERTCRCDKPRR

| koff [1] | kon [1] | koff [2] | kon [2] | koff [3] | kon [3] | binding result [4] | koff [5] | kon [5] | koff [6] | kon [6] | koff [7] | kon [7] | koff [8] | kon [8] | relative value KdhVEGF165/KdmVEGF164 [11] | relative value kdhVEGF165/kdmVEGF164 [11] | relative value KdhVEGF165/KdmVEGF164 (rat block) [12] | relative value kdhVEGF165/kdmVEGF164 (rat block) [12] | Kd [1] | Binder | other results |
| --- | --- | --- | --- | --- | --- | --- | --- | --- | --- | --- | --- | --- | --- | --- | --- | --- | --- | --- | --- | --- | --- |
| 0.001 s⁻¹ | 614000 M⁻¹ s⁻¹ | 0.000844 s⁻¹ | 351000 M⁻¹ s⁻¹ | 0.00114 s⁻¹ | 623000 M⁻¹ s⁻¹ | no binding | 0.00114 s⁻¹ | 623000 M⁻¹ s⁻¹ | 0.000453 s⁻¹ | 354000 M⁻¹ s⁻¹ | 0.000474 s⁻¹ | 287000 M⁻¹ s⁻¹ | 0.0108 s⁻¹ | 3.52e+06 M⁻¹ s⁻¹ |  |  |  |  |  | 509-min (scFv, VL and VH tied by name; also called Protein Nr; 854) scFv: EIVMTQSPSTLSASVGDRVIITCQASQNIRIWLSWYQQKPGKAPKLLIYKASTLESGVPSRFSGSGSGAEFTLTISSLQPDDFATYYCQNNAHYSTNGGTFGQGTKLTVLGGGGGSGGGGSGGGGSGGGGSEVQLVESGGGLVQPGGSLRLSCAASGFSLSSYYMCWVRQAPGKGLEWVSCLDYVGDTDYASWAKGRFTISRDNSKNTLYLQMNSLRAEDTAVYYCAKTDDSRGWGLNIWGQGTLVTVSS | Rel. activity hVEGR1 comp. ELISA (EC50Luc[nM]/EC50test[nM]) [9]: 2.9 |
| 0.00035 s⁻¹ | 2.06e+06 M⁻¹ s⁻¹ | 0.00048 s⁻¹ | 1.72e+06 M⁻¹ s⁻¹ | 0.000461 s⁻¹ | 2.01e+06 M⁻¹ s⁻¹ | no binding | 0.000461 s⁻¹ | 2.01e+06 M⁻¹ s⁻¹ | 4.54e-05 s⁻¹ | 1.89e+06 M⁻¹ s⁻¹ | 3.82e-05 s⁻¹ | 1.52e+06 M⁻¹ s⁻¹ | 0.0007 s⁻¹ | 1.11e+06 M⁻¹ s⁻¹ |  |  |  |  |  | 567-min (scFv, also called Protein Nr; 884) scFv: EIVMTQSPSTLSASVGDRVIITCQADQSIYIWLSWYQQKPGKAPKLLIYKASTLESGVPSRFSGSGSGAEFTLTISSLQPDDFATYYCQNNAHYSTNGGTFGQGTKLTVLGGGGGSGGGGSGGGGSGGGGSEVQLVESGGGLVQPGGSLRLSCAASGFSLSDYYMCWVRQAPGKGLEWVSCLDYFGSTDDASWAKGRFTISRDNSKNTLYLQMNSLRAEDTAVYYCAKTDDSRGWGLNIWGQGTLVTVSS |  |
| 0.000152 s⁻¹ | 1.64e+06 M⁻¹ s⁻¹ | 0.000203 s⁻¹ | 1.36e+06 M⁻¹ s⁻¹ | 0.000226 s⁻¹ | 1.2e+06 M⁻¹ s⁻¹ | no binding | 0.000226 s⁻¹ | 1.2e+06 M⁻¹ s⁻¹ | 5.76e-05 s⁻¹ | 1.13e+06 M⁻¹ s⁻¹ | 3.27e-05 s⁻¹ | 1e+06 M⁻¹ s⁻¹ | 0.000167 s⁻¹ | 1.17e+06 M⁻¹ s⁻¹ |  |  |  |  |  | 567-max (scFv, VL and VH tied by name; also called Protein Nr; 874) scFv: EIVMTQSPSTLSASVGDRVIITCQADQSIYIWLSWYQQKPGKAPKLLIYKASTLESGVPSRFSGSGSGTQFTLTISSLQPDDFATYYCQNNAHYSTNGGTFGQGTKLTVLGGGGGSGGGGSGGGGSGGGGSEVQLVESGGGLVQPGGSLRLSCSVSGFSLSDYYMCWVRQAPGKGLEWVGCLDYFGSTDDASWAKGRFTISKDTSKNTVYLQMNSLRAEDTAVYYCARTDDSRGWGLNIWGQGTLVTVSS | Rel. activity in HUVEC assay (EC50Luc[nM]/EC50test[nM]) [10]: 0.0086 |
|  |  |  |  | 0.000755 s⁻¹ | 167000 M⁻¹ s⁻¹ |  |  |  |  |  |  |  | 0.000104 s⁻¹ | 1.13e+06 M⁻¹ s⁻¹ |  |  |  |  |  | 435-max (scFv, the scFv entry is used; also called Protein Nr; 945) scFv: EIVMTQSPSTLSASVGDRVIITCQASQSIGSSLAWYQQKPGKAPKLLIYTAANLASGVPSRFSGSRSGAEFTLTISSLQPDDFATYYCQNFATSDTVTFGQGTKLTVLGGGGGSGGGGSGGGGSGGGGSEVQLVESGGGLVQPGGSLRLSCKASGFSLNTNYWMCWVRQAPGKGLEWVGCMYTGSYNRAYYASWAKGRFTSSKDTSKNTVYLQMNSLRAEDTAVYYCAKGSNWYSDLWGQGTLVTVSS | Rel. activity hVEGR1 comp. ELISA (EC50Luc[nM]/EC50test[nM]) [9]: 0.00039 |
| 0.00188 s⁻¹ | 1.23e+06 M⁻¹ s⁻¹ | 0.00152 s⁻¹ | 802000 M⁻¹ s⁻¹ |  |  |  |  |  |  |  |  |  |  |  | 1 | 1 | 0.8 | 1.2 | 1.53 nM | 578min_max T84N_V89L (scFv, the VH entry already carries T84N and V89L; tied by name; also called Protein No. 1008) scFv: EIVMTQSPSTLSASVGDRVIITCQASEIIHSWLAWYQQKPGKAPKLLIYLASTLASGVPSRFSGSGSGAEFTLTISSLQPDDFATYYCQNVYLASTNGANFGQGTKLTVLGGGGGSGGGGSGGGGSGGGGSEVQLVESGGGLVQPGGSLRLSCTASGFSLTDYYYMTWVRQAPGKGLEWVGFIDPDDDPYYATWAKGRFTISRDNSKNTLYLQMNSLRAEDTAVYYCAGGDHNSGWGLDIWGQGTLVTVSS | Kd [2]: 1.89 nM; Kd [13]: 1.59 nM; koff [13]: 0.0018 s⁻¹; kon [13]: 1.13e+06 M⁻¹ s⁻¹ |
| 0.00216 s⁻¹ | 1.47e+06 M⁻¹ s⁻¹ | 0.0019 s⁻¹ | 1.04e+06 M⁻¹ s⁻¹ |  |  |  |  |  |  |  |  |  |  |  | 1.8 | 1.4 | 1.5 | 1.6 | 1.46 nM | 578min_max T84N_V89L_DHP (scFv) scFv: EIVMTQSPSTLSASVGDRVIITCQASEIIHSWLAWYQQKPGKAPKLLIYLASTLASGVPSRFSGSGSGAEFTLTISSLQPDDFATYYCQNVYLASTNGANFGQGTKLTVLGGGGGSGGGGSGGGGSGGGGSEVQLVESGGGSVQPGGSLRLSCTASGFSLTDYYYMTWVRQAPGKGLEWVGFIDPDDDPYYATWAKGRFTISRDNSKNTLYLQMNSLRAEDTATYYCAGGDHNSGWGLDIWGQGTTVTVSS | Kd [2]: 1.82 nM |
| 0.000669 s⁻¹ | 1.1e+06 M⁻¹ s⁻¹ | 0.000676 s⁻¹ | 800000 M⁻¹ s⁻¹ |  |  |  |  |  |  |  |  |  |  |  | 0.9 | 0.6 | 0.7 | 0.6 | 0.608 nM | 578minmax FW1.4_DHP (scFv, tied by name only) scFv: EIVMTQSPSTLSASVGDRVIITCQASEIIHSWLAWYQQKPGKAPKLLIYLASTLASGVPSRFSGSGSGAEFTLTISSLQPDDFATYYCQNVYLASTNGANFGQGTKLTVLGGGGGSGGGGSGGGGSGGGGSEVQLVESGGGSVQPGGSLRLSCTASGFSLTDYYYMTWVRQAPGKGLEWVGFIDPDDDPYYATWAKGRFTISRDTSKNTVYLQMNSLRAEDTATYYCAGGDHNSGWGLDIWGQGTTVTVSS | Kd [2]: 0.845 nM; Kd [13]: 0.576 nM; koff [13]: 0.000409 s⁻¹; kon [13]: 711000 M⁻¹ s⁻¹ |
